Experimental data: patent publication US20250073311A1, “DOSAGE REGIME” (ZEALAND PHARMA A/S, priority 2021, published 2025)
Numbered stars: 1 amine (or outer) side, 2 acyl side, 3 side chain; on linkers, the order of the positions; unused ones are H or OH. Square brackets hold non-standard residues; d marks the D form. Side chains are listed from the residue outwards. * marks the point of attachment. C20 diacid = O=C(O)CCCCCCCCCCCCCCCCCCC(=O)*; C18 diacid = O=C(O)CCCCCCCCCCCCCCCCC(=O)*; γGlu = O=C(O)[C@H](CCC(=O)[*:2])N[*:1]; AEEA = NCCOCCOCC(=O)O; Aib = CC(C)(N)C(=O)O

T1: human GLP-2 receptor (hGLP2-R) (human, UniProt O95838)
T1 sequence: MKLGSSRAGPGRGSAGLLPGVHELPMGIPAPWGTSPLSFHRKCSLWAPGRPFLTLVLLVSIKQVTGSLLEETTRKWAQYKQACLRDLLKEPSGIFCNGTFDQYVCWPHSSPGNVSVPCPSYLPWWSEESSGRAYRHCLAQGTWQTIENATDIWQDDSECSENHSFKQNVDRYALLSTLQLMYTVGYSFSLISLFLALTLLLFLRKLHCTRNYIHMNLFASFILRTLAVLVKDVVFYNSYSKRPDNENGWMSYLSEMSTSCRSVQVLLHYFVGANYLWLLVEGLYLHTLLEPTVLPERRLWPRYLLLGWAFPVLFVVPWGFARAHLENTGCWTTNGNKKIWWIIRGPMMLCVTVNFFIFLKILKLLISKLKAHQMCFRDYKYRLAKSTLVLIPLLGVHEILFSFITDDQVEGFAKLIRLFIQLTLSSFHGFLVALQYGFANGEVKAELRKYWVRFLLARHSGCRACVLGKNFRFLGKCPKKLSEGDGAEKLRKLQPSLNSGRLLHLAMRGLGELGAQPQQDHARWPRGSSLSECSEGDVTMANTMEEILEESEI


What was measured:
[1] = molecular target: human glucagon-like peptide 1 receptor (GLP-1R) (human, UniProt P43220); assay: cell-based or functional assay
[2] = molecular target: T1, human GLP-2 receptor (hGLP2-R); assay: cell-based or functional assay

Binder	EC50 GLP-1 (nM), cAMP AlphaScreen [1] [nM]	EC50 GLP-2 (nM), cAMP AlphaScreen [2] [nM]
H-H[Aib]EGSFTSELATILDEQAAK([AEEA-AEEA-KEK-γGlu-C20 diacid])DFIAWLIEHKITD-OH [Compound 66]	0.65	0.18
H-H[Aib]EGTFSSELATILDK([γGlu-C18 diacid])KAARDFIAWLIEHKITD-OH [Compound 4]	0.66	0.087
H-H[Aib]EGTFSSELATILDK([γGlu-C18 diacid])LAARDFIAWLIEHKITD-OH (SMILES CC[C@H](C)[C@H](NC(=O)[C@H](Cc1ccccc1)NC(=O)[C@H](CC(=O)O)NC(=O)[C@H](CCCNC(=N)N)NC(=O)[C@H](C)NC(=O)[C@H](C)NC(=O)[C@H](CC(C)C)NC(=O)[C@H](CCCCNC(=O)CC[C@H](NC(=O)CCCCCCCCCCCCCCCCC(=O)O)C(=O)O)NC(=O)[C@H](CC(=O)O)NC(=O)[C@H](CC(C)C)NC(=O)[C@@H](NC(=O)[C@@H](NC(=O)[C@H](C)NC(=O)[C@H](CC(C)C)NC(=O)[C@H](CCC(=O)O)NC(=O)[C@H](CO)NC(=O)[C@H](CO)NC(=O)[C@H](Cc1ccccc1)NC(=O)[C@@H](NC(=O)CNC(=O)[C@H](CCC(=O)O)NC(=O)C(C)(C)NC(=O)[C@@H](N)Cc1c[nH]cn1)[C@@H](C)O)[C@@H](C)O)[C@@H](C)CC)C(=O)N[C@@H](C)C(=O)N[C@@H](Cc1c[nH]c2ccccc12)C(=O)N[C@@H](CC(C)C)C(=O)N[C@H](C(=O)N[C@@H](CCC(=O)O)C(=O)N[C@@H](Cc1c[nH]cn1)C(=O)N[C@@H](CCCCN)C(=O)N[C@H](C(=O)N[C@H](C(=O)N[C@@H](CC(=O)O)C(=O)O)[C@@H](C)O)[C@@H](C)CC)[C@@H](C)CC) [Compound 10]	1.8	0.087
H-H[Aib]EGSFTSELATILDAKAAK([AEEA-KEK-γGlu-C20 diacid])DFIAWLIEHKITD-OH [Compound 68]	0.084	0.1
H-H[Aib]EGTFSSELATILDGK([γGlu-C18 diacid])AARDFIAWLIEHKITD-OH (SMILES CC[C@H](C)[C@H](NC(=O)[C@H](Cc1ccccc1)NC(=O)[C@H](CC(=O)O)NC(=O)[C@H](CCCNC(=N)N)NC(=O)[C@H](C)NC(=O)[C@H](C)NC(=O)[C@H](CCCCNC(=O)CC[C@H](NC(=O)CCCCCCCCCCCCCCCCC(=O)O)C(=O)O)NC(=O)CNC(=O)[C@H](CC(=O)O)NC(=O)[C@H](CC(C)C)NC(=O)[C@@H](NC(=O)[C@@H](NC(=O)[C@H](C)NC(=O)[C@H](CC(C)C)NC(=O)[C@H](CCC(=O)O)NC(=O)[C@H](CO)NC(=O)[C@H](CO)NC(=O)[C@H](Cc1ccccc1)NC(=O)[C@@H](NC(=O)CNC(=O)[C@H](CCC(=O)O)NC(=O)C(C)(C)NC(=O)[C@@H](N)Cc1c[nH]cn1)[C@@H](C)O)[C@@H](C)O)[C@@H](C)CC)C(=O)N[C@@H](C)C(=O)N[C@@H](Cc1c[nH]c2ccccc12)C(=O)N[C@@H](CC(C)C)C(=O)N[C@H](C(=O)N[C@@H](CCC(=O)O)C(=O)N[C@@H](Cc1c[nH]cn1)C(=O)N[C@@H](CCCCN)C(=O)N[C@H](C(=O)N[C@H](C(=O)N[C@@H](CC(=O)O)C(=O)O)[C@@H](C)O)[C@@H](C)CC)[C@@H](C)CC) [Compound 7]	0.92	0.019
H-H[Aib]EGSFTSELATILDK([γGlu-C18 diacid])LAARDFIAWLIEHKITD-OH (SMILES CC[C@H](C)[C@H](NC(=O)[C@H](Cc1ccccc1)NC(=O)[C@H](CC(=O)O)NC(=O)[C@H](CCCNC(=N)N)NC(=O)[C@H](C)NC(=O)[C@H](C)NC(=O)[C@H](CC(C)C)NC(=O)[C@H](CCCCNC(=O)CC[C@H](NC(=O)CCCCCCCCCCCCCCCCC(=O)O)C(=O)O)NC(=O)[C@H](CC(=O)O)NC(=O)[C@H](CC(C)C)NC(=O)[C@@H](NC(=O)[C@@H](NC(=O)[C@H](C)NC(=O)[C@H](CC(C)C)NC(=O)[C@H](CCC(=O)O)NC(=O)[C@H](CO)NC(=O)[C@@H](NC(=O)[C@H](Cc1ccccc1)NC(=O)[C@H](CO)NC(=O)CNC(=O)[C@H](CCC(=O)O)NC(=O)C(C)(C)NC(=O)[C@@H](N)Cc1c[nH]cn1)[C@@H](C)O)[C@@H](C)O)[C@@H](C)CC)C(=O)N[C@@H](C)C(=O)N[C@@H](Cc1c[nH]c2ccccc12)C(=O)N[C@@H](CC(C)C)C(=O)N[C@H](C(=O)N[C@@H](CCC(=O)O)C(=O)N[C@@H](Cc1c[nH]cn1)C(=O)N[C@@H](CCCCN)C(=O)N[C@H](C(=O)N[C@H](C(=O)N[C@@H](CC(=O)O)C(=O)O)[C@@H](C)O)[C@@H](C)CC)[C@@H](C)CC) [Compound 11]	0.32	0.085
H-H[Aib]EGTFTSELATILDK([γGlu-C18 diacid])KAARDFIAWLIEHKITD-OH [Compound 6]	0.058	0.12
H-H[Aib]EGSFTSELATILDK([γGlu-C18 diacid])KAARDFIAWLIEHKITD-OH (SMILES CC[C@H](C)[C@H](NC(=O)[C@H](Cc1ccccc1)NC(=O)[C@H](CC(=O)O)NC(=O)[C@H](CCCNC(=N)N)NC(=O)[C@H](C)NC(=O)[C@H](C)NC(=O)[C@H](CCCCN)NC(=O)[C@H](CCCCNC(=O)CC[C@H](NC(=O)CCCCCCCCCCCCCCCCC(=O)O)C(=O)O)NC(=O)[C@H](CC(=O)O)NC(=O)[C@H](CC(C)C)NC(=O)[C@@H](NC(=O)[C@@H](NC(=O)[C@H](C)NC(=O)[C@H](CC(C)C)NC(=O)[C@H](CCC(=O)O)NC(=O)[C@H](CO)NC(=O)[C@@H](NC(=O)[C@H](Cc1ccccc1)NC(=O)[C@H](CO)NC(=O)CNC(=O)[C@H](CCC(=O)O)NC(=O)C(C)(C)NC(=O)[C@@H](N)Cc1c[nH]cn1)[C@@H](C)O)[C@@H](C)O)[C@@H](C)CC)C(=O)N[C@@H](C)C(=O)N[C@@H](Cc1c[nH]c2ccccc12)C(=O)N[C@@H](CC(C)C)C(=O)N[C@H](C(=O)N[C@@H](CCC(=O)O)C(=O)N[C@@H](Cc1c[nH]cn1)C(=O)N[C@@H](CCCCN)C(=O)N[C@H](C(=O)N[C@H](C(=O)N[C@@H](CC(=O)O)C(=O)O)[C@@H](C)O)[C@@H](C)CC)[C@@H](C)CC) [Compound 5]	0.17	0.063
H-H[Aib]EGTFTSELATILDGK([γGlu-C18 diacid])AARDFIAWLIEHKITD-OH (SMILES CC[C@H](C)[C@H](NC(=O)[C@H](Cc1ccccc1)NC(=O)[C@H](CC(=O)O)NC(=O)[C@H](CCCNC(=N)N)NC(=O)[C@H](C)NC(=O)[C@H](C)NC(=O)[C@H](CCCCNC(=O)CC[C@H](NC(=O)CCCCCCCCCCCCCCCCC(=O)O)C(=O)O)NC(=O)CNC(=O)[C@H](CC(=O)O)NC(=O)[C@H](CC(C)C)NC(=O)[C@@H](NC(=O)[C@@H](NC(=O)[C@H](C)NC(=O)[C@H](CC(C)C)NC(=O)[C@H](CCC(=O)O)NC(=O)[C@H](CO)NC(=O)[C@@H](NC(=O)[C@H](Cc1ccccc1)NC(=O)[C@@H](NC(=O)CNC(=O)[C@H](CCC(=O)O)NC(=O)C(C)(C)NC(=O)[C@@H](N)Cc1c[nH]cn1)[C@@H](C)O)[C@@H](C)O)[C@@H](C)O)[C@@H](C)CC)C(=O)N[C@@H](C)C(=O)N[C@@H](Cc1c[nH]c2ccccc12)C(=O)N[C@@H](CC(C)C)C(=O)N[C@H](C(=O)N[C@@H](CCC(=O)O)C(=O)N[C@@H](Cc1c[nH]cn1)C(=O)N[C@@H](CCCCN)C(=O)N[C@H](C(=O)N[C@H](C(=O)N[C@@H](CC(=O)O)C(=O)O)[C@@H](C)O)[C@@H](C)CC)[C@@H](C)CC) [Compound 9]	0.056	0.056
H-H[Aib]EGTFTSELATILDEQAAK([AEEA-AEEA-KEK-γGlu-C20 diacid])DFIAWLIEHKITD-OH [Compound 67]	0.16	0.22
H-H[Aib]EGSFTSELATILDGK([γGlu-C18 diacid])AARDFIAWLIEHKITD-OH (SMILES CC[C@H](C)[C@H](NC(=O)[C@H](Cc1ccccc1)NC(=O)[C@H](CC(=O)O)NC(=O)[C@H](CCCNC(=N)N)NC(=O)[C@H](C)NC(=O)[C@H](C)NC(=O)[C@H](CCCCNC(=O)CC[C@H](NC(=O)CCCCCCCCCCCCCCCCC(=O)O)C(=O)O)NC(=O)CNC(=O)[C@H](CC(=O)O)NC(=O)[C@H](CC(C)C)NC(=O)[C@@H](NC(=O)[C@@H](NC(=O)[C@H](C)NC(=O)[C@H](CC(C)C)NC(=O)[C@H](CCC(=O)O)NC(=O)[C@H](CO)NC(=O)[C@@H](NC(=O)[C@H](Cc1ccccc1)NC(=O)[C@H](CO)NC(=O)CNC(=O)[C@H](CCC(=O)O)NC(=O)C(C)(C)NC(=O)[C@@H](N)Cc1c[nH]cn1)[C@@H](C)O)[C@@H](C)O)[C@@H](C)CC)C(=O)N[C@@H](C)C(=O)N[C@@H](Cc1c[nH]c2ccccc12)C(=O)N[C@@H](CC(C)C)C(=O)N[C@H](C(=O)N[C@@H](CCC(=O)O)C(=O)N[C@@H](Cc1c[nH]cn1)C(=O)N[C@@H](CCCCN)C(=O)N[C@H](C(=O)N[C@H](C(=O)N[C@@H](CC(=O)O)C(=O)O)[C@@H](C)O)[C@@H](C)CC)[C@@H](C)CC) [Compound 8]	0.22	0.039
